From US20120201821A1 (published 2012) come the findings set out here.

Assay [1] addresses T1, human IL-17RA (human, UniProt Q96F46 33-866).
T1 construct: Retrovirally expressed on 293 cells from human IL17RA cDNA (pMSCV-IRES-GFP); Surface expression was confirmed with an anti-Flag antibody, so the construct may carry a Flag tag; not described; also called hIL-17RA
T1 sequence: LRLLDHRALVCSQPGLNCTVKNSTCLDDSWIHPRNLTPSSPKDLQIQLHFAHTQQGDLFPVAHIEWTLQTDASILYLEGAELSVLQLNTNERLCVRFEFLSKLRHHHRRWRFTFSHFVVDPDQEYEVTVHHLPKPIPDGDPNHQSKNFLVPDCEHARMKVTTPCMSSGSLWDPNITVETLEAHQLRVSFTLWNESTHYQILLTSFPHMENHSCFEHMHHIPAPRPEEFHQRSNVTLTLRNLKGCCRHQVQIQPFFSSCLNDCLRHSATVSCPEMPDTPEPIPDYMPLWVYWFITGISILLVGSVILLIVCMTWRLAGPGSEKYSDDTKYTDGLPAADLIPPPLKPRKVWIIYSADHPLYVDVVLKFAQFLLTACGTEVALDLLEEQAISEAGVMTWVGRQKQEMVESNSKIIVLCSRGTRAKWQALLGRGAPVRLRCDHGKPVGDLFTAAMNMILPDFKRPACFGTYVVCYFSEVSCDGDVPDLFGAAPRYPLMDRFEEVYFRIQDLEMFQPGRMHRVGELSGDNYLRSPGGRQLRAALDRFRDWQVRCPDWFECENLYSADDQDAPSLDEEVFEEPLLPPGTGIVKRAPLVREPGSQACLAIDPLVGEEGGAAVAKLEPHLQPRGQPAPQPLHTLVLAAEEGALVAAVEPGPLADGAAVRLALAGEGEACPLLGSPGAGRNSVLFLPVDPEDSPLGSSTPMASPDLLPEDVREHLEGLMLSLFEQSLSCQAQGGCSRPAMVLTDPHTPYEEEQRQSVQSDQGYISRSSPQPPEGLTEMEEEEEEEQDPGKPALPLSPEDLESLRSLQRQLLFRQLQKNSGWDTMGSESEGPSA
The assay is described as follows: radioligand competition binding: 125I-hIL-17C displaced by unlabeled hIL-17C on 293 cells expressing hIL-17RA. On the procedure:
(§1) 293 cells expressing the IL-17 receptors were incubated for 2 hours at room temperature with a fixed concentration of iodinated hIL-17C combined with increasing concentrations of unlabeled hIL-17C and including a zero-added, buffer only sample. After the 2-hour incubation, the competition reactions were transferred to a Millipore Multiscreen filter plate and washed 4 times with binding buffer to separate the free from bound iodinated hIL-17C. The filters were counted on a Wallac Wizard 1470 gamma counter and binding data was evaluated using NewLigand software (Genentech), which uses the fitting algorithm of Munson and Rodbard to determine the binding affinity of IL-17C 58.

In assay [2] the target is T2, human IL-17RE (human, UniProt Q8NFR9 24-667).
T2 construct: Retrovirally expressed on 293 cells or HDFn fibroblasts from human IL17RE cDNA; A possible Flag tag on the construct is not described; also called hIL-17RE
T2 sequence: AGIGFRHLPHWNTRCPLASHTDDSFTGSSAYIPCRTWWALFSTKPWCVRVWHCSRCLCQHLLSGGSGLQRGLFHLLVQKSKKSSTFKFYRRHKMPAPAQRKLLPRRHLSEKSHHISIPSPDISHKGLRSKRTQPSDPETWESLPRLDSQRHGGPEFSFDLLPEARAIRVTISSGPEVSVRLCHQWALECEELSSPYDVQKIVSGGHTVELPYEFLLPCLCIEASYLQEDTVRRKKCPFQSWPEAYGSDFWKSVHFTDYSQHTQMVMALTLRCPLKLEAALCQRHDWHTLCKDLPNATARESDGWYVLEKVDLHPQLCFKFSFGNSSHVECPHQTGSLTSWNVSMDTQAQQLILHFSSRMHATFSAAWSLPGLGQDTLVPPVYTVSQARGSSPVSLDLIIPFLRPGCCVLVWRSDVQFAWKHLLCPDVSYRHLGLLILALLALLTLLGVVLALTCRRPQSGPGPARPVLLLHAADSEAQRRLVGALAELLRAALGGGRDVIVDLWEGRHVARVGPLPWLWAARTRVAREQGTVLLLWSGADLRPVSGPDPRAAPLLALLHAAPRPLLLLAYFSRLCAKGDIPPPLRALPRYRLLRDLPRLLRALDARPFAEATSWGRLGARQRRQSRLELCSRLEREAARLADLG
The assay is described as follows: radioligand competition binding: 125I-hIL-17C displaced by unlabeled hIL-17C on 293 cells expressing hIL-17RE. On the procedure: as §1

Assay [3] concerns the target T3, human IL-17RD (human, UniProt Q8NFM7 17-739).
T3 construct: whole, on cells
T3 sequence (looked up): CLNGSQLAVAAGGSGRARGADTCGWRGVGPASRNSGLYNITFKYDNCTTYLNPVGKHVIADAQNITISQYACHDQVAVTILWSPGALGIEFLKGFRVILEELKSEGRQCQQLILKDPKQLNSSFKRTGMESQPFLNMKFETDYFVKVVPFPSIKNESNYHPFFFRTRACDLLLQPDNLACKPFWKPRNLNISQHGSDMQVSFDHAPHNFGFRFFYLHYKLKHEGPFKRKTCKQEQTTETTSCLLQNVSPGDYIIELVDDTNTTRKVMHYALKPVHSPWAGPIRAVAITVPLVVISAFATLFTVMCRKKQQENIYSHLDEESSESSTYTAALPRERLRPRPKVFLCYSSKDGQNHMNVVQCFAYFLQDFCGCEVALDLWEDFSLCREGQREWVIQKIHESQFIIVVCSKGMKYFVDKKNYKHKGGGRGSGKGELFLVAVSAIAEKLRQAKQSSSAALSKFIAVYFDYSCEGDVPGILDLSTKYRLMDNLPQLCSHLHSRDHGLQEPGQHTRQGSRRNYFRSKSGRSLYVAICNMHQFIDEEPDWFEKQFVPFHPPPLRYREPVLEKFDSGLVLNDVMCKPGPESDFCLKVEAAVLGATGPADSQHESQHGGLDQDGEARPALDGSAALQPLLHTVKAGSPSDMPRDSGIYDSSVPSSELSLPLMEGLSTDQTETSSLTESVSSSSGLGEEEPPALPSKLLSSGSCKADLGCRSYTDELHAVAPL
The assay is described as follows: flow cytometry, Flag-tagged hIL-17C on 293 cells expressing the receptor, anti-Flag detection.

The target of assay [4] is T4, human IL-17RC (human, UniProt Q8NAC3 21-791).
T4 construct: whole, on cells
T4 sequence (looked up): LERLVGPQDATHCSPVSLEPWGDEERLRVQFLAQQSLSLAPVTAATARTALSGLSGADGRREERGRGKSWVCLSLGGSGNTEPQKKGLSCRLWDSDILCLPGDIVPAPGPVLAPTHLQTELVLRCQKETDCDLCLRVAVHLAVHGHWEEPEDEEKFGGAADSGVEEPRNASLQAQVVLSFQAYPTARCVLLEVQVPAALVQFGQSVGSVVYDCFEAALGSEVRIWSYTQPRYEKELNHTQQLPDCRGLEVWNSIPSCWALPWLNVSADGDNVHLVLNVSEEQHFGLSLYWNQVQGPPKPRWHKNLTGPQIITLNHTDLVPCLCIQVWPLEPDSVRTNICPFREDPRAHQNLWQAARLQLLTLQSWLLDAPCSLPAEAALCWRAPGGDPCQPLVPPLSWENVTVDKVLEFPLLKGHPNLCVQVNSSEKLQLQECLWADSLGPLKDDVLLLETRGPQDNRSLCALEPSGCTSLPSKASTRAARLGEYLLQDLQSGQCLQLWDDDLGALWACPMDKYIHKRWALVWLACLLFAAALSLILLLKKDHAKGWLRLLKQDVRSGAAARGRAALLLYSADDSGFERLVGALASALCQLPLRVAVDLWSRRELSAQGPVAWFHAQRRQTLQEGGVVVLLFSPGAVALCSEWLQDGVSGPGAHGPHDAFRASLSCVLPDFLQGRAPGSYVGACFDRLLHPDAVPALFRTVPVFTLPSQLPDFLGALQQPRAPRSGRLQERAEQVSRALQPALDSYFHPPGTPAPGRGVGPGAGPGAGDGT
The description is as above.

Assay [5] concerns the target T5, human IL-17RB (human, UniProt Q9NRM6 18-502).
T5 construct: whole, on cells
T5 sequence (looked up): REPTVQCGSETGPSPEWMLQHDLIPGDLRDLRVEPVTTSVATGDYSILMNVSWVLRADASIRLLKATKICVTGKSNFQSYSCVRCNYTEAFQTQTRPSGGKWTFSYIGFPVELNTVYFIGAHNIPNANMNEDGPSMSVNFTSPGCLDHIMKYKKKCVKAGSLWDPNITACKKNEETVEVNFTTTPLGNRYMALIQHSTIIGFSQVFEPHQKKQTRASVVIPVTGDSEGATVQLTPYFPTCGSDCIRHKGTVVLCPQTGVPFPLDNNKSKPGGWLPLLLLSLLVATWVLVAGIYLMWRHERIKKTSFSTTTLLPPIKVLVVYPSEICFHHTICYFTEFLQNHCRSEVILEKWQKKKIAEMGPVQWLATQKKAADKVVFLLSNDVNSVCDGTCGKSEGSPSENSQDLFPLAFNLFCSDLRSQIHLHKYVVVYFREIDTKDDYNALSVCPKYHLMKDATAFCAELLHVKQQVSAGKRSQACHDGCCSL
The description is as above.

The target of assay [6] is T2, human IL-17RE. Kind of assay: binding screen on IL-17RE expressing 293 cells.

B1: Flag-tagged mature human IL-17C (His-19 to Val-197) with Gly-77 and Arg-78 substituted to Arg and Thr (ligand)
chain: HHDPSLRGHPHSHGTPHCYSAEELPLGQAPPHLLARGAKWGQALPVALVSSLEAASHRRTHERPSATTQCPVLRPEEVLEADTHQRSISPWRYRVDTDEDRYPQKLAFAECLCRGCIDARTGRETAALNSVRLLQSLLVLRRRPCSRDGSGLPTPGAFAFHTEFIHVPVGCTCVLPRSV
notes: Made in CHO cells as an N-terminal Flag fusion; For the radioligand assay the protein was iodinated (Iodogen); also called hIL-17C; FLAG-tagged hIL-17C; not shown: N-terminal Flag tag
Consider B1, for which the dissociation constant Kd in assay [1] was found to be 1400 nM; in assay [2], 0.35 nM. In addition, the binding result in assay [3], in assay [4] and in assay [5] was “no binding” each time.

B2: IL-17B (ligand, UniProt Q9UHF5 21-180, looked up)
chain: QPRSPKSKRKGQGRPGPLAPGPHQVPLDLVSRMKPYARMEEYERNIEEMVAQLRNSSELAQRKCEVNLQLWMSNKRSLSPWGYSINHDPSRIPVDLPEARCLCLGCVNPFTMQEDRSMVSVPVFSQVPVRRRLCPPPPRTGPCRQRAVMETIAVGCTCIF
B2: the binding result in assay [6] was “no binding”.

B3: IL-17E (ligand, UniProt Q9H293 33-177, looked up)
chain: YSHWPSCCPSKGQDTSEELLRWSTVPVPPLEPARPNRHPESCRASEDGPLNSRAISPWRYELDRDLNRLPQDLYHARCLCPHCVSLQTGSHMDPRGNSELLYHNQTVFYRRPCHGEKGTHKGYCLERRLYRVSLACVCVRPRVMG
notes: also called IL-25
Regarding B3, the binding result in assay [6] is on record as “no binding”.

B4: IL-17F (ligand, UniProt Q96PD4 31-163, looked up)
chain: RKIPKVGHTFFQKPESCPPVPGGSMKLDIGIINENQRVSMSRNIESRSTSPWNYTVTWDPNRYPSEVVQAQCRNLGCINAQGKEDISMNSVPIQQETLVVRRKHQGCSVSFQLEKVLVTVGCTCVTPVIHHVQ
In the case of B4, the binding result in assay [6] is recorded as “no binding”.
